Data set [1] concerns UGDH T325D. The settings on record: UGDH T325D obligate dimer; cited from earlier work.
Data set [2] is described as follows: Thermofluor Stability Assay (thermal denaturation) of purified UGDH. In kind it is physicochemical, human. Particulars: for Tm Apo: apo enzyme; for Tm Holo: holoenzyme complex (substrate and cofactor). From the text: We first generated the UGDH S316 point mutants in a bacterial construct that expressed the proteins with a six-histidine fusion to facilitate purification by nickel affinity chromatography as we have done previously. […] However, UGDH S316D yields were somewhat lower as a result of protein precipitation following purification. To compare the intrinsic stability of the S316 point mutants, we used a modified version of the Thermofluor Stability Assay, which we have used previously as a preliminary indicator of UGDH quaternary assembly. The UGDH WT and UGDH S316A enzymes had significant increases in melting temperature (Tm) upon addition of either substrate or cofactor and were stabilized by almost 20°C in the holoenzyme complex as expected.
Purified S316 mutants were compared to the UGDH WT enzyme using the following approaches as previously described. Enzymatic activity was evaluated by steady state kinetics in the presence and absence of the endogenous inhibitor UDP-Xylose to compare Michaelis constants and IC50 values. Intrinsic stability was assessed by thermal denaturation and quaternary structure was determined by size exclusion chromatography. Binding of UDP-Xylose to recombinant UGDH and mutants was measured by isothermal titration calorimetry using the MicroCal PEAQ-ITC (Malvern Panalytical). UGDH WT (50 μM in 0.1 M sodium phosphate buffer, pH 7.4) was placed in the cell, with UDP-Xyl (250 μM) in the syringe. Binding heats were corrected for the heat of dilution and analyzed using the MicroCal PEAQ-ITC Analysis Software, employing a single-site binding model to determine Kd values.
(DSF heats the sample and reads unfolding from a dye or from intrinsic fluorescence.)

B1: UGDH T325D: obligate dimeric UGDH mutant, T325 to aspartate (protein, UniProt O60701 1-494, looked up, variant T325D)
UDP-glucose 6-dehydrogenase: MFEIKKICCIGAGYVGGPTCSVIAHMCPEIRVTVVDVNESRINAWNSPTLPIYEPGLKEVVESCRGKNLFFSTNIDDAIKEADLVFISVNTPTKTYGMGKGRAADLKYIEACARRIVQNSNGYKIVTEKSTVPVRAAESIRRIFDANTKPNLNLQVLSNPEFLAEGTAIKDLKNPDRVLIGGDETPEGQRAVQALCAVYEHWVPREKILTTNTWSSELSKLAANAFLAQRISSINSISALCEATGADVEEVATAIGMDQRIGNKFLKASVGFGGSCFQKDVLNLVYLCEALNLPEVARYWQQVIDMNDYQRRRFASRIIDSLFNDVTDKKIAILGFAFKKDTGDTRESSSIYISKYLMDEGAHLHIYDPKVPREQIVVDLSHPGVSEDDQVSRLVTISKDPYEACDGAHAVVICTEWDMFKELDYERIHKKMLKPAFIFDGRRVLDGLHNELQTIGFQIETIGKKVSSKRIPYAPSGEIPKFSLQDPPNKKPKV
Take B1: in data set [1], the Vmax values is 65 to 75 nmol/min/mg.

B2: S316D: purified recombinant human UGDH, phosphomimetic serine 316 to aspartate point mutant (protein)
chain: MFEIKKICCIGAGYVGGPTCSVIAHMCPEIRVTVVDVNESRINAWNSPTLPIYEPGLKEVVESCRGKNLFFSTNIDDAIKEADLVFISVNTPTKTYGMGKGRAADLKYIEACARRIVQNSNGYKIVTEKSTVPVRAAESIRRIFDANTKPNLNLQVLSNPEFLAEGTAIKDLKNPDRVLIGGDETPEGQRAVQALCAVYEHWVPREKILTTNTWSSELSKLAANAFLAQRISSINSISALCEATGADVEEVATAIGMDQRIGNKFLKASVGFGGSCFQKDVLNLVYLCEALNLPEVARYWQQVIDMNDYQRRRFADRIIDSLFNTVTDKKIAILGFAFKKDTGDTRESSSIYISKYLMDEGAHLHIYDPKVPREQIVVDLSHPGVSEDDQVSRLVTISKDPYEACDGAHAVVICTEWDMFKELDYERIHKKMLKPAFIFDGRRVLDGLHNELQTIGFQIETIGKKVSSKRIPYAPSGEIPKFSLQDPPNKKPKV
modifications: left off: His6, end not stated, state not stated
notes: purified recombinant human UGDH, phosphomimetic serine 316 to aspartate point mutant
B2: in data set [2], the “Tm Apo” value was 47±1.0 °C and the “Tm Holo” value amounted to 63±0.3 °C.

B3: S316A: purified recombinant human UGDH, phosphodeficient serine 316 to alanine point mutant (protein)
chain: MFEIKKICCIGAGYVGGPTCSVIAHMCPEIRVTVVDVNESRINAWNSPTLPIYEPGLKEVVESCRGKNLFFSTNIDDAIKEADLVFISVNTPTKTYGMGKGRAADLKYIEACARRIVQNSNGYKIVTEKSTVPVRAAESIRRIFDANTKPNLNLQVLSNPEFLAEGTAIKDLKNPDRVLIGGDETPEGQRAVQALCAVYEHWVPREKILTTNTWSSELSKLAANAFLAQRISSINSISALCEATGADVEEVATAIGMDQRIGNKFLKASVGFGGSCFQKDVLNLVYLCEALNLPEVARYWQQVIDMNDYQRRRFAARIIDSLFNTVTDKKIAILGFAFKKDTGDTRESSSIYISKYLMDEGAHLHIYDPKVPREQIVVDLSHPGVSEDDQVSRLVTISKDPYEACDGAHAVVICTEWDMFKELDYERIHKKMLKPAFIFDGRRVLDGLHNELQTIGFQIETIGKKVSSKRIPYAPSGEIPKFSLQDPPNKKPKV
modifications: left off: His6, end not stated, state not stated
notes: purified recombinant human UGDH, phosphodeficient serine 316 to alanine point mutant
In the case of B3, in data set [2], the “Tm Apo” value is 49±0.2 °C and the “Tm Holo” value came out at 66±3.0 °C.

B4: WT: purified recombinant human wild-type UGDH (protein)
chain: MFEIKKICCIGAGYVGGPTCSVIAHMCPEIRVTVVDVNESRINAWNSPTLPIYEPGLKEVVESCRGKNLFFSTNIDDAIKEADLVFISVNTPTKTYGMGKGRAADLKYIEACARRIVQNSNGYKIVTEKSTVPVRAAESIRRIFDANTKPNLNLQVLSNPEFLAEGTAIKDLKNPDRVLIGGDETPEGQRAVQALCAVYEHWVPREKILTTNTWSSELSKLAANAFLAQRISSINSISALCEATGADVEEVATAIGMDQRIGNKFLKASVGFGGSCFQKDVLNLVYLCEALNLPEVARYWQQVIDMNDYQRRRFASRIIDSLFNTVTDKKIAILGFAFKKDTGDTRESSSIYISKYLMDEGAHLHIYDPKVPREQIVVDLSHPGVSEDDQVSRLVTISKDPYEACDGAHAVVICTEWDMFKELDYERIHKKMLKPAFIFDGRRVLDGLHNELQTIGFQIETIGKKVSSKRIPYAPSGEIPKFSLQDPPNKKPKV
modifications: left off: His6, end not stated, state not stated
notes: purified recombinant human wild-type UGDH
Consider B4, for which, in data set [2], the “Tm Apo” value turned out to be 50±0.4 °C and the “Tm Holo” value is 68±1.7 °C.

Source of the values: PMC13330650 (Matrix biology : journal of the International Society for …, 2025).
